Laboratory results from PMC10011603, “TRAK adaptors regulate the recruitment and activation of dynein and kinesin in mitochondrial transport” (Nature Communications, 2023).

T1: full-length human kinesin-1 heavy chain (KIF5B-GFP-SNAPf) (human, UniProt P33176 1-963, fluorescent dye in motility assays (LD555-kinesin, Alexa488-kinesin))
T1 construct: kinesin-1 heavy chain KIF5B, human, amino acids 1-963, full length; source: baculovirus-infected SF9 cells, purified (IgG Sepharose, TEV protease); not shown: His6-ZZ, N-terminal, cleaved; GFP, C-terminal, kept; SNAPf, C-terminal, kept
T1 sequence (looked up): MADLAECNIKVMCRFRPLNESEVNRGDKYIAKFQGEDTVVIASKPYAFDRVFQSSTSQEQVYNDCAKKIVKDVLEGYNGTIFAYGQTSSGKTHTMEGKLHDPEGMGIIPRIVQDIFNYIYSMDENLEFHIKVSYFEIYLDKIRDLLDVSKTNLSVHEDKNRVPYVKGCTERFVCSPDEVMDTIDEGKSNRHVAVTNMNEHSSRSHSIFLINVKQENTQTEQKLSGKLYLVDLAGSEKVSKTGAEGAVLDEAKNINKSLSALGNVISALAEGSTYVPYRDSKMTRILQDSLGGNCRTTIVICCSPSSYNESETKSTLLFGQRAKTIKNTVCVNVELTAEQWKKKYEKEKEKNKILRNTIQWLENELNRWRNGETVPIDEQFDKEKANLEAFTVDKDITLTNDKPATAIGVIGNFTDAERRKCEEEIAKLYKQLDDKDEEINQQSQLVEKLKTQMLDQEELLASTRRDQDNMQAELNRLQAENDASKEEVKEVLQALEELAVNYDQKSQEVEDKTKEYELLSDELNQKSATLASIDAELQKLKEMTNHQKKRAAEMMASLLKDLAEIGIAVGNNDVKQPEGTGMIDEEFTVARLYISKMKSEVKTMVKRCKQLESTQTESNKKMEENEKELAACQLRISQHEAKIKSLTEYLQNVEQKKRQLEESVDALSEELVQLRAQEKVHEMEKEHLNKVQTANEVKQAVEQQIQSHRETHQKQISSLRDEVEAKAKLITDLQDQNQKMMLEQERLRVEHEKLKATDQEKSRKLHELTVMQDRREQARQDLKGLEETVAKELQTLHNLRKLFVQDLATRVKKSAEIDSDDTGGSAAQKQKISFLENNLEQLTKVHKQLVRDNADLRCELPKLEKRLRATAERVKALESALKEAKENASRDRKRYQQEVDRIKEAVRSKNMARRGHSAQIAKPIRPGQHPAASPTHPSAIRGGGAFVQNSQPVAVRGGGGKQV


How the values were obtained:
[1] = biological target: T1, full-length human kinesin-1 heavy chain …; experiment: single-molecule TIRF colocalisation on microtubules; two-colour imaging of labeled kinesin and labeled TRAK constructs on surface-immobilized MTs, 0-50 nM MAP7, 1 mM Mg·ATP; also with 2 mM Ca2+; conditions: both partners purified
[2] = biological target: T2, Miro1^1–592 (Miro1^1–592-SNAP-psc-StrepII) (human, UniProt Q8IXI2 1-592, LD655 dye on the SNAP tag in motility assays); experiment: single-molecule TIRF colocalisation on microtubules; three-colour imaging of Alexa488-KIF5B, LD555-TRAK1 1-532 (or full-length TRAK1) and LD655-Miro1 1-592; 10 nM MAP7; 0, 0.1 and 2 mM Ca2+; conditions: both partners purified
T2 construct: mitochondrial Rho GTPase 1 (Miro1), human, residues 1-592, lacks the transmembrane domain; A PreScission site (psc) stands between SNAP and StrepII; no cleavage is told; also called Miro1^1–592-StrepII; Miro1^1–592-SNAPf-StrepII; source: purified (Streptactin Sepharose, eluted with desthiobiotin); not shown: SNAP, C-terminal, kept; StrepII, C-terminal, kept

[3] = biological target: T1, full-length human kinesin-1 heavy chain …; experiment: as above; conditions: both partners purified
[4] = biological target: T1, full-length human kinesin-1 heavy chain …; experiment: cell-based or functional assay

T2 sequence (Q8IXI2 1-592): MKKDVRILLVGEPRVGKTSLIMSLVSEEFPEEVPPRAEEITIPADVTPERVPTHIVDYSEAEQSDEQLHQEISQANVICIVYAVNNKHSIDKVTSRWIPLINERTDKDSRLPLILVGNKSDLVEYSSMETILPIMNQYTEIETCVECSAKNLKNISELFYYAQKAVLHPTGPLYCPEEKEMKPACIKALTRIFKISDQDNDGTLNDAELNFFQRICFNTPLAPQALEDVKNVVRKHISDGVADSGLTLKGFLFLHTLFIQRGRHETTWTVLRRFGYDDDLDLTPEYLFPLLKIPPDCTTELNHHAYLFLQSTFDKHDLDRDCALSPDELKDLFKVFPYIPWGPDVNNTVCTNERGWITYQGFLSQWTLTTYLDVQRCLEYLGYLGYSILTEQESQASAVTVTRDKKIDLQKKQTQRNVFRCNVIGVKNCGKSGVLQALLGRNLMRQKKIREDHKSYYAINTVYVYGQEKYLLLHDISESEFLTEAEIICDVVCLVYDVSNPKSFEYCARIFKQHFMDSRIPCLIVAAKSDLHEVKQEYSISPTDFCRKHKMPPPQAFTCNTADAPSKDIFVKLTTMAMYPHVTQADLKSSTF

Row | Binder | binding result [1] | further results
1 | TRAK2^1–400 (domain or fragment, human, UniProt O60296 1-400, looked up, LD555 or LD655 dye on the SNAP-tag in motility assays, TRAK2, human, residues 1-400; full length printed as 1-914; also called T2^1–400; N-terminal coiled coil of TRAK2 with CC1 box and Spindly motif; source: baculovirus-infected SF9 cells, purified (IgG Sepharose, TEV protease); not shown: His6-ZZ, N-terminal, cleaved; SNAP-tag or GFP, C-terminal, kept) MSQSQNAIFTSPTGEENLMNSNHRDSESITDVCSNEDLPEVELVSLLEEQLPQYRLKVDTLFLYENQDWTQSPHQRQHASDALSPVLAEETFRYMILGTDRVEQMTKTYNDIDMVTHLLAERDRDLELAARIGQALLKRNHVLSEQNESLEEQLGQAFDQVNQLQHELCKKDELLRIVSIASEESETDSSCSTPLRFNESFSLSQGLLQLEMLQEKLKELEEENMALRSKACHIKTETVTYEEKEQQLVSDCVKELRETNAQMSRMTEELSGKSDELIRYQEELSSLLSQIVDLQHKLKEHVIEKEELKLHLQASKDAQRQLTMELHELQDRNMECLGMLHESQEEIKELRSRSGPTAHLYFSQSYGAFTGESLAAEIEGTMRKKLSLDEESSLFKQKAQ | binds | –
2 | full-length TRAK2 (TRAK2^1–914) (natural protein, human, UniProt O60296 1-914, looked up, TRAK2, human, residues 1-914, full length; source: HEK 293 F GNTI-/- cells, PEI transfection, purified (TRAK purification procedure); not shown: His6-ZZ, N-terminal, cleaved; SNAP-tag or GFP, C-terminal, kept) MSQSQNAIFTSPTGEENLMNSNHRDSESITDVCSNEDLPEVELVSLLEEQLPQYRLKVDTLFLYENQDWTQSPHQRQHASDALSPVLAEETFRYMILGTDRVEQMTKTYNDIDMVTHLLAERDRDLELAARIGQALLKRNHVLSEQNESLEEQLGQAFDQVNQLQHELCKKDELLRIVSIASEESETDSSCSTPLRFNESFSLSQGLLQLEMLQEKLKELEEENMALRSKACHIKTETVTYEEKEQQLVSDCVKELRETNAQMSRMTEELSGKSDELIRYQEELSSLLSQIVDLQHKLKEHVIEKEELKLHLQASKDAQRQLTMELHELQDRNMECLGMLHESQEEIKELRSRSGPTAHLYFSQSYGAFTGESLAAEIEGTMRKKLSLDEESSLFKQKAQQKRVFDTVRIANDTRGRSISFPALLPIPGSNRSSVIMTAKPFESGLQQTEDKSLLNQGSSSEEVAGSSQKMGQPGPSGDSDLATALHRLSLRRQNYLSEKQFFAEEWQRKIQVLADQKEGVSGCVTPTESLASLCTTQSEITDLSSASCLRGFMPEKLQIVKPLEGSQTLYHWQQLAQPNLGTILDPRPGVITKGFTQLPGDAIYHISDLEEDEEEGITFQVQQPLEVEEKLSTSKPVTGIFLPPITSAGGPVTVATANPGKCLSCTNSTFTFTTCRILHPSDITQVTPSSGFPSLSCGSSGSSSSNTAVNSPALSYRLSIGESITNRRDSTTTFSSTMSLAKLLQERGISAKVYHSPISENPLQPLPKSLAIPSTPPNSPSHSPCPSPLPFEPRVHLSENFLASRPAETFLQEMYGLRPSRNPPDVGQLKMNLVDRLKRLGIARVVKNPGAQENGRCQEAEIGPQKPDSAVYLNSGSSLLGGLRRNQSLPVIMGSFAAPVCTSSPKMGVLKED | binds | –
3 | TRAK1^1–532 (domain or fragment, human, UniProt Q9UPV9 1-532, looked up, LD555 dye on the SNAP-tag in motility assays, full length printed as 1-953; also called TRAK1 construct containing the coiled coils and part of the C-terminal domain; source: baculovirus-infected SF9 cells, purified (IgG Sepharose, TEV protease); not shown: His6-ZZ, N-terminal, cleaved; SNAP-tag or GFP, C-terminal, kept) MALVFQFGQPVRAQPLPGLCHGKLIRTNACDVCNSTDLPEVEIISLLEEQLPHYKLRADTIYGYDHDDWLHTPLISPDANIDLTTEQIEETLKYFLLCAERVGQMTKTYNDIDAVTRLLEEKERDLELAARIGQSLLKKNKTLTERNELLEEQVEHIREEVSQLRHELSMKDELLQFYTSAAEESEPESVCSTPLKRNESSSSVQNYFHLDSLQKKLKDLEEENVVLRSEASQLKTETITYEEKEQQLVNDCVKELRDANVQIASISEELAKKTEDAARQQEEITHLLSQIVDLQKKAKACAVENEELVQHLGAAKDAQRQLTAELRELEDKYAECMEMLHEAQEELKNLRNKTMPNTTSRRYHSLGLFPMDSLAAEIEGTMRKELQLEEAESPDITHQKRVFETVRNINQVVKQRSLTPSPMNIPGSNQSSAMNSLLSSCVSTPRSSFYGSDIGNVVLDNKTNSIILETEAADLGNDERSKKPGTPGTPGSHDLETALRRLSLRRENYLSERRFFEEEQERKLQELAEKGE | – | binding result [2]: binds; binding result [3]: binds
4 | TRAK1^1–400 (domain or fragment, human, UniProt Q9UPV9 1-400, looked up, LD555 or LD655 dye on the SNAP-tag in motility assays, TRAK1, human, residues 1-400; full length printed as 1-953; also called T1^1–400; N-terminal coiled coil of TRAK1 with CC1 box and Spindly motif; source: baculovirus-infected SF9 cells, purified (IgG Sepharose, TEV protease); not shown: His6-ZZ, N-terminal, cleaved; SNAP-tag or GFP, C-terminal, kept) MALVFQFGQPVRAQPLPGLCHGKLIRTNACDVCNSTDLPEVEIISLLEEQLPHYKLRADTIYGYDHDDWLHTPLISPDANIDLTTEQIEETLKYFLLCAERVGQMTKTYNDIDAVTRLLEEKERDLELAARIGQSLLKKNKTLTERNELLEEQVEHIREEVSQLRHELSMKDELLQFYTSAAEESEPESVCSTPLKRNESSSSVQNYFHLDSLQKKLKDLEEENVVLRSEASQLKTETITYEEKEQQLVNDCVKELRDANVQIASISEELAKKTEDAARQQEEITHLLSQIVDLQKKAKACAVENEELVQHLGAAKDAQRQLTAELRELEDKYAECMEMLHEAQEELKNLRNKTMPNTTSRRYHSLGLFPMDSLAAEIEGTMRKELQLEEAESPDITHQK | binds | –
5 | full-length TRAK1 (TRAK1^1–953) (natural protein, human, UniProt Q9UPV9 1-953, looked up, TRAK1, human, residues 1-953, full length; source: HEK 293 F GNTI-/- cells, PEI transfection, purified (TRAK purification procedure); not shown: His6-ZZ, N-terminal, cleaved; SNAP-tag or GFP, C-terminal, kept) MALVFQFGQPVRAQPLPGLCHGKLIRTNACDVCNSTDLPEVEIISLLEEQLPHYKLRADTIYGYDHDDWLHTPLISPDANIDLTTEQIEETLKYFLLCAERVGQMTKTYNDIDAVTRLLEEKERDLELAARIGQSLLKKNKTLTERNELLEEQVEHIREEVSQLRHELSMKDELLQFYTSAAEESEPESVCSTPLKRNESSSSVQNYFHLDSLQKKLKDLEEENVVLRSEASQLKTETITYEEKEQQLVNDCVKELRDANVQIASISEELAKKTEDAARQQEEITHLLSQIVDLQKKAKACAVENEELVQHLGAAKDAQRQLTAELRELEDKYAECMEMLHEAQEELKNLRNKTMPNTTSRRYHSLGLFPMDSLAAEIEGTMRKELQLEEAESPDITHQKRVFETVRNINQVVKQRSLTPSPMNIPGSNQSSAMNSLLSSCVSTPRSSFYGSDIGNVVLDNKTNSIILETEAADLGNDERSKKPGTPGTPGSHDLETALRRLSLRRENYLSERRFFEEEQERKLQELAEKGELRSGSLTPTESIMSLGTHSRFSEFTGFSGMSFSSRSYLPEKLQIVKPLEGSATLHHWQQLAQPHLGGILDPRPGVVTKGFRTLDVDLDEVYCLNDFEEDDTGDHISLPRLATSTPVQHPETSAHHPGKCMSQTNSTFTFTTCRILHPSDELTRVTPSLNSAPTPACGSTSHLKSTPVATPCTPRRLSLAESFTNTRESTTTMSTSLGLVWLLKERGISAAVYDPQSWDRAGRGSLLHSYTPKMAVIPSTPPNSPMQTPTSSPPSFEFKCTSPPYDNFLASKPASSILREVREKNVRSSESQTDVSVSNLNLVDKVRRFGVAKVVNSGRAHVPTLTEEQGPLLCGPPGPAPALVPRGLVPEGLPLRCPTVTSAIGGLQLNSGIRRNRSFPTMVGSSMQMKAPVTLTSGILMGAKLSKQTSLR | binds | –
6 | TRAK1^1–360 (domain or fragment, human, UniProt Q9UPV9 1-360, looked up, LD555 or LD655 dye on the SNAP-tag in motility assays) MALVFQFGQPVRAQPLPGLCHGKLIRTNACDVCNSTDLPEVEIISLLEEQLPHYKLRADTIYGYDHDDWLHTPLISPDANIDLTTEQIEETLKYFLLCAERVGQMTKTYNDIDAVTRLLEEKERDLELAARIGQSLLKKNKTLTERNELLEEQVEHIREEVSQLRHELSMKDELLQFYTSAAEESEPESVCSTPLKRNESSSSVQNYFHLDSLQKKLKDLEEENVVLRSEASQLKTETITYEEKEQQLVNDCVKELRDANVQIASISEELAKKTEDAARQQEEITHLLSQIVDLQKKAKACAVENEELVQHLGAAKDAQRQLTAELRELEDKYAECMEMLHEAQEELKNLRNKTMPNTTS | – | kinesin landing rate on MTs in the presence of MAP7, 5-20 nM TRAK1 1-360 against no TRAK [4]: 5 fold
